Reference: publication PMC9482650, “Quantitative fragmentomics allow affinity mapping of interactomes” (Nature Communications, 2022)

Tests used:
Assay in all cases: holdup assay
Design in all cases: key: below the threshold = too weak to quantify, mostly under pKd 3.1 to 4
Conditions in all cases: plain residues with an end cap or a label only (N-terminal biotin on a linker: ado-ado)
APBA1_1, Q02410 = target: T1, APBA1_1, Q02410
T1 sequence (Q02410 651-752, limits assumed, looked up): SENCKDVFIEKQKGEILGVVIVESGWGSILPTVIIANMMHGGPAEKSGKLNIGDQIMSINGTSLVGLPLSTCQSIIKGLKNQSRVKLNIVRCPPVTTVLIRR

ARHGEF12, Q9NZN5-2 = target: ARHGEF12, Q9NZN5-2
DLG2_2, Q15700 = target: DLG2_2, Q15700
DLG3_2, Q92796 = target: T2, DLG3_2, Q92796
T2 sequence (Q92796 221-321, limits assumed, looked up): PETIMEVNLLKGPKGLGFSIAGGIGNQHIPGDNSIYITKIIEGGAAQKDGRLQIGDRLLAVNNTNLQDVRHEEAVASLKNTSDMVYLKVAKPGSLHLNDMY

DLG3_3, Q92796 = target: T3, DLG3_3, Q92796
T3 sequence (Q92796 374-475, limits assumed, looked up): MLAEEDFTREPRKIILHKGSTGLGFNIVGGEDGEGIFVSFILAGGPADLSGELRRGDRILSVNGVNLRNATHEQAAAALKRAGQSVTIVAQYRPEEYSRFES

DLG4_3, P78352 = target: DLG4_3, P78352
DLG5_1, Q8TDM6 = target: DLG5_1, Q8TDM6
FRMPD4, Q14CM0 = target: FRMPD4, Q14CM0
GORASP2, Q9H8Y8 = target: GORASP2, Q9H8Y8
GRASP, Q7Z6J2 = target: GRASP, Q7Z6J2
GRIP1_5, Q9Y3R0 = target: T4, GRIP1_5, Q9Y3R0
T4 sequence (Q9Y3R0 568-668, limits assumed, looked up): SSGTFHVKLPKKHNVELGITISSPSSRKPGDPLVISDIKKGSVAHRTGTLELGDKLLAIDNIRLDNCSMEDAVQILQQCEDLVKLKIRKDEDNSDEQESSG

IL16_1, Q14005 = target: IL16_1, Q14005
LDB3, O75112 = target: LDB3, O75112
LIN7A, O14910 = target: T5, LIN7A, O14910
T5 sequence (O14910 103-200, limits assumed, looked up): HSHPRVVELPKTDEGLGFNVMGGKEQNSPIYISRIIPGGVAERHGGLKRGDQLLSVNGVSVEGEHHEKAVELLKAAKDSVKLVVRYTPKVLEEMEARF

MAGI1_2, Q96QZ7 = target: MAGI1_2, Q96QZ7
MAGI2_2, Q86UL8 = target: MAGI2_2, Q86UL8
MAGI2_3, Q86UL8 = target: MAGI2_3, Q86UL8
MAGI3_2, Q5TCQ9 = target: MAGI3_2, Q5TCQ9
MPDZ_5, O75970 = target: T6, MPDZ_5, O75970
T6 sequence (O75970 695-796, limits assumed, looked up): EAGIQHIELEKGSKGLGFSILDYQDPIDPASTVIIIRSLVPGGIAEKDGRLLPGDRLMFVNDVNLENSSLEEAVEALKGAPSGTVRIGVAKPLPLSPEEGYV

MPP6, Q9NZW5 = target: T7, MPP6, Q9NZW5
T7 sequence (Q9NZW5 125-219, limits assumed, looked up): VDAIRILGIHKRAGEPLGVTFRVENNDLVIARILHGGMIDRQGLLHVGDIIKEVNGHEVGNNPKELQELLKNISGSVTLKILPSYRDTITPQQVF

PDLIM1, O00151 = target: PDLIM1, O00151
RADIL, Q96JH8 = target: T8, RADIL, Q96JH8
T8 sequence (Q96JH8 971-1071, limits assumed, looked up): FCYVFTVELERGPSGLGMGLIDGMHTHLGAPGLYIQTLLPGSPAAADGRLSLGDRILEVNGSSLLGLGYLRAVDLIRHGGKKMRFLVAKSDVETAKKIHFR

SCRIB_2, Q14160 = target: SCRIB_2, Q14160
SCRIB_3, Q14160 = target: SCRIB_3, Q14160
SHANK1, Q9Y566 = target: T9, SHANK1, Q9Y566
T9 sequence (Q9Y566 658-767, limits assumed, looked up): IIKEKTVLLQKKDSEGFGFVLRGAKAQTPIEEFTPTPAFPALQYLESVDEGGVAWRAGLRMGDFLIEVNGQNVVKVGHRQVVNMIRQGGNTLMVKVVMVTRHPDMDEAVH

SIPA1L2, Q9P2F8 = target: T10, SIPA1L2, Q9P2F8
T10 sequence (Q9P2F8 945-1036, limits assumed, looked up): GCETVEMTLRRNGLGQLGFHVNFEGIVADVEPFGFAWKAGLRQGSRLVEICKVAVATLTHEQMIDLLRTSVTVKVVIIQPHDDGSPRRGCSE

TJP1_2, Q07157 = target: TJP1_2, Q07157
TJP2_1, Q9UDY2 = target: TJP2_1, Q9UDY2
Sequence of TJP2_1, Q9UDY2 (Q9UDY2 24-128): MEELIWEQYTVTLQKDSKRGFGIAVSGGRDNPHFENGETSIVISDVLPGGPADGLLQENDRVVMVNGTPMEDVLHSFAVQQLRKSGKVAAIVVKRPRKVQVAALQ

Sequence of LDB3, O75112 (O75112 1-94): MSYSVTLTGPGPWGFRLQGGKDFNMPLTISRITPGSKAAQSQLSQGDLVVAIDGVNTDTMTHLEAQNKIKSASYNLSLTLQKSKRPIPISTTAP
Sequence of MAGI2_2, Q86UL8 (Q86UL8 410-522): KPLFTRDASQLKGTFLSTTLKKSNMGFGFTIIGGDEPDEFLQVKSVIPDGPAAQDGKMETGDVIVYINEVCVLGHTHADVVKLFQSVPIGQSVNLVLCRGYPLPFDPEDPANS
Sequence of TJP1_2, Q07157 (Q07157 181-274): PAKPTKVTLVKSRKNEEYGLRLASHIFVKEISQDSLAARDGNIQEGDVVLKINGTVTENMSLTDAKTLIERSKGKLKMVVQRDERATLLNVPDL
Sequence of PDLIM1, O00151 (O00151 1-87): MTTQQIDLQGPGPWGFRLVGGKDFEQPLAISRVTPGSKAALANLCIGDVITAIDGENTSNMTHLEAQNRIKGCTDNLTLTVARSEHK
Sequence of SCRIB_3, Q14160 (Q14160 999-1103): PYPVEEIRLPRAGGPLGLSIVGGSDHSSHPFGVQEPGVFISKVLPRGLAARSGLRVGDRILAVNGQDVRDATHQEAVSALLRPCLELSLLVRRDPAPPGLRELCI
Sequence of MAGI2_3, Q86UL8 (Q86UL8 600-682): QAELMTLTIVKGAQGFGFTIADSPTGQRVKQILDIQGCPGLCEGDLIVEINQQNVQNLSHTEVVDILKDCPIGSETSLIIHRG
Sequence of IL16_1, Q14005 (Q14005 210-306): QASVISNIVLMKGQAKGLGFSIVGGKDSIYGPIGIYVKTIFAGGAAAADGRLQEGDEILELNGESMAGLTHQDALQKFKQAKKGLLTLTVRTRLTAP
Sequence of DLG2_2, Q15700 (Q15700 189-283): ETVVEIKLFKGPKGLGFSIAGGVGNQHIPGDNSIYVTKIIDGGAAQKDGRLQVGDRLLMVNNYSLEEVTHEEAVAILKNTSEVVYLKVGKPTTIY
Sequence of DLG4_3, P78352 (P78352 306-403): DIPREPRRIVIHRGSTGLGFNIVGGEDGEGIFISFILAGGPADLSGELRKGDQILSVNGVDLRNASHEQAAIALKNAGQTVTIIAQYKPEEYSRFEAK
Sequence of MAGI3_2, Q5TCQ9 (Q5TCQ9 398-503): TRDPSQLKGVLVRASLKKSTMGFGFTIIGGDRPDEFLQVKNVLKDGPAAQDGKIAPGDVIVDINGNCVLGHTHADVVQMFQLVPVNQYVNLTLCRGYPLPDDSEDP
Sequence of MAGI1_2, Q96QZ7 (Q96QZ7 456-580): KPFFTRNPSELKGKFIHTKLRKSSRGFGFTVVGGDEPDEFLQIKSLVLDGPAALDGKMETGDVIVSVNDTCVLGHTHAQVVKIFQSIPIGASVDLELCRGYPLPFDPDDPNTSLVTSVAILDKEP
Sequence of GRASP, Q7Z6J2 (Q7Z6J2 96-193): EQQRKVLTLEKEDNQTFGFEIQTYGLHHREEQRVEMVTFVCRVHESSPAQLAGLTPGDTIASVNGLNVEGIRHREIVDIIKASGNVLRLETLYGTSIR
Sequence of ARHGEF12, Q9NZN5-2 (Q9NZN5 other isoform, or with tags, fused parts or gaps): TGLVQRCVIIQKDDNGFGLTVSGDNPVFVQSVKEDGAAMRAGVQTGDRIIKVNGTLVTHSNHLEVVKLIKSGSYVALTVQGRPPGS
Sequence of SCRIB_2, Q14160 (Q14160 857-960): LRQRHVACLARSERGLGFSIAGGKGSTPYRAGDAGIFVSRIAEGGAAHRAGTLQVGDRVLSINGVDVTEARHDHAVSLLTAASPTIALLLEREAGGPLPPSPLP
Sequence of DLG5_1, Q8TDM6 (Q8TDM6 617-713): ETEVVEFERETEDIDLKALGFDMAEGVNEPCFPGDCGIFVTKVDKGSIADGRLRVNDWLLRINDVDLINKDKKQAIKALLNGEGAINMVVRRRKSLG
Sequence of FRMPD4, Q14CM0 (Q14CM0 67-160): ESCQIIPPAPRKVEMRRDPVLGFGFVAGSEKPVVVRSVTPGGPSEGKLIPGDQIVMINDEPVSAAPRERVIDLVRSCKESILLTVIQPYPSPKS

For RSPVATATSC [DUSP5, Q16690], the pKd (APBA1_1, Q02410) was “below the threshold”, the pKd (ARHGEF12, Q9NZN5-2) was 4.26 and the pKd (DLG2_2, Q15700) was “below the threshold”. The pKd (DLG3_2, Q92796) was 4.18, the pKd (DLG3_3, Q92796) was “below the threshold” and the pKd (DLG4_3, P78352) was “below the threshold”. The pKd (DLG5_1, Q8TDM6) was “below the threshold”, the pKd (FRMPD4, Q14CM0) was “below the threshold” and the pKd (GORASP2, Q9H8Y8) was “below the threshold”. For the same binder, the pKd (GRASP, Q7Z6J2) was “below the threshold”, the pKd (GRIP1_5, Q9Y3R0) was “below the threshold” and the pKd (IL16_1, Q14005) was “below the threshold”. For the same binder, the pKd (LDB3, O75112) was “below the threshold”, the pKd (LIN7A, O14910) was “below the threshold” and the pKd (MAGI1_2, Q96QZ7) was “below the threshold”. For the same binder, the pKd (MAGI2_2, Q86UL8) was “below the threshold”, the pKd (MAGI2_3, Q86UL8) was “below the threshold” and the pKd (MAGI3_2, Q5TCQ9) was “below the threshold”. The pKd (MPDZ_5, O75970) was “below the threshold”, the pKd (MPP6, Q9NZW5) was “below the threshold” and the pKd (PDLIM1, O00151) was “below the threshold”. The pKd (RADIL, Q96JH8) was “below the threshold”, the pKd (SCRIB_2, Q14160) was “below the threshold” and the pKd (SCRIB_3, Q14160) was 3.56. For the same binder, the pKd (SHANK1, Q9Y566) was 3.55, the pKd (SIPA1L2, Q9P2F8) was “below the threshold” and the pKd (TJP1_2, Q07157) was “below the threshold”. The pKd (TJP2_1, Q9UDY2) was “below the threshold”.

In the case of PLPPEEESWV [GAS2L2, Q8NHY3], the pKd (APBA1_1, Q02410) is reported as “below the threshold”, the pKd (ARHGEF12, Q9NZN5-2) is reported as “below the threshold” and the pKd (DLG2_2, Q15700) is reported as 4.19. For the same binder, the pKd (DLG3_2, Q92796) was 4.64, the pKd (DLG3_3, Q92796) was “below the threshold” and the pKd (DLG4_3, P78352) was “below the threshold”. The pKd (DLG5_1, Q8TDM6) was “below the threshold”, the pKd (FRMPD4, Q14CM0) was 3.55 and the pKd (GORASP2, Q9H8Y8) was 4.48. The pKd (GRASP, Q7Z6J2) was 4.23, the pKd (GRIP1_5, Q9Y3R0) was “below the threshold” and the pKd (IL16_1, Q14005) was 5.24. The pKd (LDB3, O75112) was “below the threshold”, the pKd (LIN7A, O14910) was “below the threshold” and the pKd (MAGI1_2, Q96QZ7) was “below the threshold”. The pKd (MAGI2_2, Q86UL8) was “below the threshold”, the pKd (MAGI2_3, Q86UL8) was 4.13 and the pKd (MAGI3_2, Q5TCQ9) was 4.38. The pKd (MPDZ_5, O75970) was 3.79, the pKd (MPP6, Q9NZW5) was “below the threshold” and the pKd (PDLIM1, O00151) was 4.22. For the same binder, the pKd (RADIL, Q96JH8) was 4.55, the pKd (SCRIB_2, Q14160) was 4.94 and the pKd (SCRIB_3, Q14160) was 4.99. The pKd (SHANK1, Q9Y566) was 4.62, the pKd (SIPA1L2, Q9P2F8) was “below the threshold” and the pKd (TJP1_2, Q07157) was “below the threshold”. It also gave a pKd (TJP2_1, Q9UDY2) of 4.4.

STYCDYTIEI [FAM71C, Q8NEG0] was tested, and the pKd (APBA1_1, Q02410) was “below the threshold”, the pKd (ARHGEF12, Q9NZN5-2) was 3.76 and the pKd (DLG2_2, Q15700) was “below the threshold”. For the same binder, the pKd (DLG3_2, Q92796) was “below the threshold”, the pKd (DLG3_3, Q92796) was “below the threshold” and the pKd (DLG4_3, P78352) was “below the threshold”. The pKd (DLG5_1, Q8TDM6) was “below the threshold”, the pKd (FRMPD4, Q14CM0) was “below the threshold” and the pKd (GORASP2, Q9H8Y8) was 4.41. The pKd (GRASP, Q7Z6J2) was 3.69, the pKd (GRIP1_5, Q9Y3R0) was “below the threshold” and the pKd (IL16_1, Q14005) was “below the threshold”. The pKd (LDB3, O75112) was “below the threshold”, the pKd (LIN7A, O14910) was “below the threshold” and the pKd (MAGI1_2, Q96QZ7) was “below the threshold”. The pKd (MAGI2_2, Q86UL8) was “below the threshold”, the pKd (MAGI2_3, Q86UL8) was “below the threshold” and the pKd (MAGI3_2, Q5TCQ9) was “below the threshold”. The pKd (MPDZ_5, O75970) was “below the threshold”, the pKd (MPP6, Q9NZW5) was 3.67 and the pKd (PDLIM1, O00151) was “below the threshold”. The pKd (RADIL, Q96JH8) was 4.58, the pKd (SCRIB_2, Q14160) was “below the threshold” and the pKd (SCRIB_3, Q14160) was 4.06. The pKd (SHANK1, Q9Y566) was “below the threshold”, the pKd (SIPA1L2, Q9P2F8) was “below the threshold” and the pKd (TJP1_2, Q07157) was 3.65. The pKd (TJP2_1, Q9UDY2) was “below the threshold”.

For MQILSKPEFI [NPSR1, Q6W5P4], the pKd (APBA1_1, Q02410) was 3.88, the pKd (ARHGEF12, Q9NZN5-2) was “below the threshold” and the pKd (DLG2_2, Q15700) was “below the threshold”. For the same binder, the pKd (DLG3_2, Q92796) was 4.18, the pKd (DLG3_3, Q92796) was “below the threshold” and the pKd (DLG4_3, P78352) was 3.49. The pKd (DLG5_1, Q8TDM6) was “below the threshold”, the pKd (FRMPD4, Q14CM0) was “below the threshold” and the pKd (GORASP2, Q9H8Y8) was 4.61. The pKd (GRASP, Q7Z6J2) was 3.68, the pKd (GRIP1_5, Q9Y3R0) was “below the threshold” and the pKd (IL16_1, Q14005) was “below the threshold”. The pKd (LDB3, O75112) was “below the threshold”, the pKd (LIN7A, O14910) was “below the threshold” and the pKd (MAGI1_2, Q96QZ7) was “below the threshold”. For the same binder, the pKd (MAGI2_2, Q86UL8) was “below the threshold”, the pKd (MAGI2_3, Q86UL8) was “below the threshold” and the pKd (MAGI3_2, Q5TCQ9) was “below the threshold”. For the same binder, the pKd (MPDZ_5, O75970) was “below the threshold”, the pKd (MPP6, Q9NZW5) was “below the threshold” and the pKd (PDLIM1, O00151) was “below the threshold”. The pKd (RADIL, Q96JH8) was 4.42, the pKd (SCRIB_2, Q14160) was “below the threshold” and the pKd (SCRIB_3, Q14160) was 3.59. The pKd (SHANK1, Q9Y566) was “below the threshold”, the pKd (SIPA1L2, Q9P2F8) was “below the threshold” and the pKd (TJP1_2, Q07157) was “below the threshold”. The pKd (TJP2_1, Q9UDY2) was “below the threshold”.

In the case of KIEDVEITLV [FCHSD2, O94868], the pKd (APBA1_1, Q02410) is reported as “below the threshold”, the pKd (ARHGEF12, Q9NZN5-2) is reported as 3.85 and the pKd (DLG2_2, Q15700) is reported as 3.74. For the same binder, the pKd (DLG3_2, Q92796) was 3.53, the pKd (DLG3_3, Q92796) was “below the threshold” and the pKd (DLG4_3, P78352) was “below the threshold”. For the same binder, the pKd (DLG5_1, Q8TDM6) was 3.52, the pKd (FRMPD4, Q14CM0) was “below the threshold” and the pKd (GORASP2, Q9H8Y8) was 4.01. For the same binder, the pKd (GRASP, Q7Z6J2) was 5.5, the pKd (GRIP1_5, Q9Y3R0) was “below the threshold” and the pKd (IL16_1, Q14005) was 3.48. For the same binder, the pKd (LDB3, O75112) was “below the threshold”, the pKd (LIN7A, O14910) was “below the threshold” and the pKd (MAGI1_2, Q96QZ7) was “below the threshold”. The pKd (MAGI2_2, Q86UL8) was 3.77, the pKd (MAGI2_3, Q86UL8) was 4.52 and the pKd (MAGI3_2, Q5TCQ9) was 4.05. The pKd (MPDZ_5, O75970) was “below the threshold”, the pKd (MPP6, Q9NZW5) was 3.74 and the pKd (PDLIM1, O00151) was “below the threshold”. For the same binder, the pKd (RADIL, Q96JH8) was 5.03, the pKd (SCRIB_2, Q14160) was “below the threshold” and the pKd (SCRIB_3, Q14160) was 3.48. For the same binder, the pKd (SHANK1, Q9Y566) was 4.1, the pKd (SIPA1L2, Q9P2F8) was “below the threshold” and the pKd (TJP1_2, Q07157) was “below the threshold”. The pKd (TJP2_1, Q9UDY2) was “below the threshold”.
